Source: patent US20180346600A1 (AJOU UNIVERSITY INDUSTRY ACADEMIC COOPERATION FOUNDATION, published 2018)

T1: displayed FcCH3A, W-VT (K409W), on yeast cell surface (human, UniProt P0DOX5 227-449 = IgG part)
T1 construct: EU 226 and 229 counted from the entry's start at EU 225; also called W-VT CH3A chain (yeast)
T1 Fc: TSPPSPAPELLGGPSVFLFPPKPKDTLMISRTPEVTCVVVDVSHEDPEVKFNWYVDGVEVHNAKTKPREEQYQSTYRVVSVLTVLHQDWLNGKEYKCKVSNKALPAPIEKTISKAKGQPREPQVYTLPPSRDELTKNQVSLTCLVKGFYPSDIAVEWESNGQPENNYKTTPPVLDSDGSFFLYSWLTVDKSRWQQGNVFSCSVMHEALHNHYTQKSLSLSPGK

T2: displayed FcCH3A, EW-RVT (K360E/K409W), on yeast cell surface (human, UniProt P0DOX5 227-449 = IgG part)
T2 construct: also called EW-RVT CH3A chain (yeast)
T2 Fc: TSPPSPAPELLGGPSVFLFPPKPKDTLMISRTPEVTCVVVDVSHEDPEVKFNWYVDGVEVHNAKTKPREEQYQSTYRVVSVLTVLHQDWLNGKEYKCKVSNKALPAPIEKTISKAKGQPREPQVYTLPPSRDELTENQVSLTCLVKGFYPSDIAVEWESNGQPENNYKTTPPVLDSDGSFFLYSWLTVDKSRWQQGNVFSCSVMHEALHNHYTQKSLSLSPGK

B1: secreted FcCH3B, W-VT (D399V/F405T), from yeast (other)
chain: TSPPSPAPELLGGPSVFLFPPKPKDTLMISRTPEVTCVVVDVSHEDPEVKFNWYVDGVEVHNAKTKPREEQYQSTYRVVSVLTVLHQDWLNGKEYKCKVSNKALPAPIEKTISKAKGQPREPQVYTLPPSRDELTKNQVSLTCLVKGFYPSDIAVEWESNGQPENNYKTTPPVLVSDGSFTLYSKLTVDKSRWQQGNVFSCSVMHEALHNHYTQKSLSLSPGK
notes: also called W-VT CH3B chain (yeast); not shown: flag-tag
B2: FcCH3B, B168 (K392G/K409M/D399V/F405T) (other)
chain: TCPPCPAPELLGGPSVFLFPPKPKDTLMISRTPEVTCVVVDVSHEDPEVKFNWYVDGVEVHNAKTKPREEQYNSTYRVVSVLTVLHQDWLNGKEYKCKVSNKALPAPIEKTISKAKGQPREPQVYTLPPSRDELTKNQVSLTCLVKGFYPSDIAVEWESNGQPENNYGTTPPVLVSDGSFTLYSMLTVDKSRWQQGNVFSCSVMHEALHNHYTQKSLSLSPGK
notes: also called B168 CH3B chain
B3: FcCH3B, A108 (E357I/S364T/D399V/F405T) (other)
chain: TCPPCPAPELLGGPSVFLFPPKPKDTLMISRTPEVTCVVVDVSHEDPEVKFNWYVDGVEVHNAKTKPREEQYNSTYRVVSVLTVLHQDWLNGKEYKCKVSNKALPAPIEKTISKAKGQPREPQVYTLPPSRDILTKNQVTLTCLVKGFYPSDIAVEWESNGQPENNYKTTPPVLVSDGSFTLYSKLTVDKSRWQQGNVFSCSVMHEALHNHYTQKSLSLSPGK
notes: also called A108 CH3B chain
B4: FcCH3B, A109 (E357M/S364W/D399V/F405T) (other)
chain: TCPPCPAPELLGGPSVFLFPPKPKDTLMISRTPEVTCVVVDVSHEDPEVKFNWYVDGVEVHNAKTKPREEQYNSTYRVVSVLTVLHQDWLNGKEYKCKVSNKALPAPIEKTISKAKGQPREPQVYTLPPSRDMLTKNQVWLTCLVKGFYPSDIAVEWESNGQPENNYKTTPPVLVSDGSFTLYSKLTVDKSRWQQGNVFSCSVMHEALHNHYTQKSLSLSPGK
notes: also called A109 CH3B chain
B5: FcCH3B, B135 (K392S/K409L/D399V/F405T) (other)
chain: TCPPCPAPELLGGPSVFLFPPKPKDTLMISRTPEVTCVVVDVSHEDPEVKFNWYVDGVEVHNAKTKPREEQYNSTYRVVSVLTVLHQDWLNGKEYKCKVSNKALPAPIEKTISKAKGQPREPQVYTLPPSRDELTKNQVSLTCLVKGFYPSDIAVEWESNGQPENNYSTTPPVLVSDGSFTLYSLLTVDKSRWQQGNVFSCSVMHEALHNHYTQKSLSLSPGK
notes: also called B135 CH3B chain
B6: FcCH3B, A146 (E357M/D399V/F405T) (other)
chain: TCPPCPAPELLGGPSVFLFPPKPKDTLMISRTPEVTCVVVDVSHEDPEVKFNWYVDGVEVHNAKTKPREEQYNSTYRVVSVLTVLHQDWLNGKEYKCKVSNKALPAPIEKTISKAKGQPREPQVYTLPPSRDMLTKNQVSLTCLVKGFYPSDIAVEWESNGQPENNYKTTPPVLVSDGSFTLYSKLTVDKSRWQQGNVFSCSVMHEALHNHYTQKSLSLSPGK
notes: also called A146 CH3B chain
B7: FcCH3B, B121 (K392E/D399V/F405T) (other)
chain: TCPPCPAPELLGGPSVFLFPPKPKDTLMISRTPEVTCVVVDVSHEDPEVKFNWYVDGVEVHNAKTKPREEQYNSTYRVVSVLTVLHQDWLNGKEYKCKVSNKALPAPIEKTISKAKGQPREPQVYTLPPSRDELTKNQVSLTCLVKGFYPSDIAVEWESNGQPENNYETTPPVLVSDGSFTLYSKLTVDKSRWQQGNVFSCSVMHEALHNHYTQKSLSLSPGK
notes: also called B121 CH3B chain
B8: FcCH3B, A107 (E357N/D399V/F405T) (other)
chain: TCPPCPAPELLGGPSVFLFPPKPKDTLMISRTPEVTCVVVDVSHEDPEVKFNWYVDGVEVHNAKTKPREEQYNSTYRVVSVLTVLHQDWLNGKEYKCKVSNKALPAPIEKTISKAKGQPREPQVYTLPPSRDNLTKNQVSLTCLVKGFYPSDIAVEWESNGQPENNYKTTPPVLVSDGSFTLYSKLTVDKSRWQQGNVFSCSVMHEALHNHYTQKSLSLSPGK
notes: also called A107 CH3B chain
B9: FcCH3B, EW-RVT (Q347R/D399V/F405T) (other)
chain: TCPPCPAPELLGGPSVFLFPPKPKDTLMISRTPEVTCVVVDVSHEDPEVKFNWYVDGVEVHNAKTKPREEQYNSTYRVVSVLTVLHQDWLNGKEYKCKVSNKALPAPIEKTISKAKGQPREPRVYTLPPSRDELTKNQVSLTCLVKGFYPSDIAVEWESNGQPENNYKTTPPVLVSDGSFTLYSKLTVDKSRWQQGNVFSCSVMHEALHNHYTQKSLSLSPGK
notes: also called EW-RVT CH3B chain
B10: secreted FcCH3B, EW-RVT (Q347R/D399V/F405T), from yeast (other)
chain: TSPPSPAPELLGGPSVFLFPPKPKDTLMISRTPEVTCVVVDVSHEDPEVKFNWYVDGVEVHNAKTKPREEQYQSTYRVVSVLTVLHQDWLNGKEYKCKVSNKALPAPIEKTISKAKGQPREPRVYTLPPSRDELTKNQVSLTCLVKGFYPSDIAVEWESNGQPENNYKTTPPVLVSDGSFTLYSKLTVDKSRWQQGNVFSCSVMHEALHNHYTQKSLSLSPGK
notes: also called EW-RVT CH3B chain (yeast); not shown: flag-tag
B11: FcCH3B, B239 (D399S/K392G/K409M) (other)
chain: TCPPCPAPELLGGPSVFLFPPKPKDTLMISRTPEVTCVVVDVSHEDPEVKFNWYVDGVEVHNAKTKPREEQYNSTYRVVSVLTVLHQDWLNGKEYKCKVSNKALPAPIEKTISKAKGQPREPQVYTLPPSRDELTKNQVSLTCLVKGFYPSDIAVEWESNGQPENNYGTTPPVLSSDGSFFLYSMLTVDKSRWQQGNVFSCSVMHEALHNHYTQKSLSLSPGK
notes: also called B239 CH3B chain
B12: FcCH3B, B212 (D399G/K392G/K409M) (other)
chain: TCPPCPAPELLGGPSVFLFPPKPKDTLMISRTPEVTCVVVDVSHEDPEVKFNWYVDGVEVHNAKTKPREEQYNSTYRVVSVLTVLHQDWLNGKEYKCKVSNKALPAPIEKTISKAKGQPREPQVYTLPPSRDELTKNQVSLTCLVKGFYPSDIAVEWESNGQPENNYGTTPPVLGSDGSFFLYSMLTVDKSRWQQGNVFSCSVMHEALHNHYTQKSLSLSPGK
notes: also called B212 CH3B chain
B13: FcCH3B, B240 (D399G/K392G/K409M) (other)
chain: TCPPCPAPELLGGPSVFLFPPKPKDTLMISRTPEVTCVVVDVSHEDPEVKFNWYVDGVEVHNAKTKPREEQYNSTYRVVSVLTVLHQDWLNGKEYKCKVSNKALPAPIEKTISKAKGQPREPQVYTLPPSRDELTKNQVSLTCLVKGFYPSDIAVEWESNGQPENNYGTTPPVLGSDGSFFLYSMLTVDKSRWQQGNVFSCSVMHEALHNHYTQKSLSLSPGK
notes: also called B240 CH3B chain
B14: FcCH3B, B256 (D399V/K392G/K409M) (other)
chain: TCPPCPAPELLGGPSVFLFPPKPKDTLMISRTPEVTCVVVDVSHEDPEVKFNWYVDGVEVHNAKTKPREEQYNSTYRVVSVLTVLHQDWLNGKEYKCKVSNKALPAPIEKTISKAKGQPREPQVYTLPPSRDELTKNQVSLTCLVKGFYPSDIAVEWESNGQPENNYGTTPPVLVSDGSFFLYSMLTVDKSRWQQGNVFSCSVMHEALHNHYTQKSLSLSPGK
notes: also called B256 CH3B chain
B15: FcCH3B, B215 (D399W/K392G/K409M) (other)
chain: TCPPCPAPELLGGPSVFLFPPKPKDTLMISRTPEVTCVVVDVSHEDPEVKFNWYVDGVEVHNAKTKPREEQYNSTYRVVSVLTVLHQDWLNGKEYKCKVSNKALPAPIEKTISKAKGQPREPQVYTLPPSRDELTKNQVSLTCLVKGFYPSDIAVEWESNGQPENNYGTTPPVLWSDGSFFLYSMLTVDKSRWQQGNVFSCSVMHEALHNHYTQKSLSLSPGK
notes: also called B215 CH3B chain
B16: FcCH3B, B235 (D399C/K392G/K409M) (other)
chain: TCPPCPAPELLGGPSVFLFPPKPKDTLMISRTPEVTCVVVDVSHEDPEVKFNWYVDGVEVHNAKTKPREEQYNSTYRVVSVLTVLHQDWLNGKEYKCKVSNKALPAPIEKTISKAKGQPREPQVYTLPPSRDELTKNQVSLTCLVKGFYPSDIAVEWESNGQPENNYGTTPPVLCSDGSFFLYSMLTVDKSRWQQGNVFSCSVMHEALHNHYTQKSLSLSPGK
notes: also called B235 CH3B chain

Biological target: T1, displayed FcCH3A, W-VT (K409W), on …
Experiment: flow cytometry histogram (PE, FL2-H) of diploid yeast: Flag-tagged secreted FcCH3B held on displayed FcCH3A, anti-Flag mouse mAb and PE anti-mouse antibody
Procedure: Specifically, the diploid in which the expression of the heterodimeric heavy chain constant region was induced was reacted with an antibody recognizing flag-tag included in the secreted FcCH3B (anti-Flag mouse mAb, F3165) (Sigma-Aldrich) and an antibody conjugated with PE (phycoerythrin conjugated anti-mouse mAb, sc-3738) (Santa Cruz biotechnology), and a signal of PE was analyzed by flow cytometry.

B1: binds.

Biological target: the molecule itself
Experiment: HEK293-F co-expression, Protein A purification, non-reducing SDS-PAGE densitometry
Text: The pcDNA3.1 (+)-scFv-FcCH3A and pcDNA3.1 (+)-FcCH3B animal cell expression vectors that were constructed using the HEK293-F system (Invitrogen) were used to produce antibodies by transient transfection, and the heterodimer formation ability was compared. Specifically, a mixture of an expression vector and polyethylenimine (PEI) (Polyscience) was transfected into HEK293-F cells (Invitrogen) that were suspension-grown on a serum-free FreeStyle 293 expression medium (Invitrogen) in a shaking flask (Corning). When transfecting 30 ml of the mixture in the shaking flask, HEK293-F cells were seeded at a density of 1.0×10⁶ cell/ml in 30 ml of medium and cultured at 125 rpm and 8% CO₂. […] Then, the reacted mixed medium was added to 30 ml of the previously seeded cells and cultured at 125 rpm and 8% CO₂ for 6 days. The cell culture supernatant collected with reference to the standard protocol was applied to Protein A Sepharose column (GE healthcare), washed with PBS (pH 7.4). The antibody was eluted at pH 3.0 with 0.1 M glycine buffer and immediately neutralized with 1 M Tris buffer. The eluted antibody fraction was concentrated using an Amicon Ultra (MILLIPORE) centrifugal concentrator after the buffer was exchanged with PBS (pH 7.4) using a Dextran Desalting Column (Thermo Scientific Pierce). The purified antibody was quantified by BCA technique.
The W-VT and EW-RVT mutants were used as control groups.

Compared with B2, B3 is lower in “(Fc)2 (homodimer) (%)” value: 21.1% for the first, 13% for the second.

First: B4
Second: B5
The “(Fc)2 (homodimer) (%)” value of the first is lower: 5.8% for the first, 27.9% for the second.

Going from B6 to B7, the “(Fc)2 (homodimer) (%)” value rises from 14.6% to 25.2%.

Going from B8 to B9, the “(Fc)2 (homodimer) (%)” value falls from 2.4% to 1.6%.

Biological target: T2, displayed FcCH3A, EW-RVT (K360E/K409W), …
Experiment: flow cytometry of diploid yeast: MFI of Flag-tagged secreted FcCH3B held on displayed FcCH3A (anti-Flag mouse mAb and PE anti-mouse antibody), normalised to EW-RVT = 100 %

B10: binds.

Biological target: the molecule itself
Experiment: HEK293-F co-expression, Protein A purification, non-reducing SDS-PAGE densitometry
Remark: another data set of the same source
Text: The CH3 domain mutant pair of the individual clones selected from the LibA2 and LibB2 libraries in Example 8 above was cloned into an animal cell expression vector so that the CH3A mutant was expressed into the scFv-FcCH3A format and the CH3B mutant was expressed into the FcCH3B format.
The EW-RVT and A107_{w/oW-VT}, B168_{w/oW-VT} mutant pairs were used as control groups.

Going from B11 to B12, the “(FC)2 (homodimer)(%)” value rises from 20.3% to 33.8%.

Compared with B13, B14 is higher in “(FC)2 (homodimer)(%)” value: 11.9% for the first, 16.7% for the second.

Going from B15 to B9, the “(FC)2 (homodimer)(%)” value falls from 20% to 1.6%.

For B16, the “(FC)2 (homodimer)(%)” value was 6.9%.
